Results: PMC11169542, “A probe for NIR-II imaging and multimodal analysis of early Alzheimer’s disease by targeting CTGF” (Nature Communications, 2024)
Ends that are not written are not given here.

Key:
CTGF [1] = assay: DGC labelling of CTGF in cells by fluorescence imaging (CLSM); format: cell-based; settings: for FL Intensity of DGC per cell: 55 μM DGC 60 min, CLSM
Experimental: The U87MG, SH-SY5Y, and CTX TNA2 cells in confocal dishes were fixed with 4% paraformaldehyde solution (PFA) for 30 min. Next, the cells were washed with cold PBS three times, and 3% BSA in PBS solution was introduced to the cells to block the nonspecific recognition sites. Then, the cells were incubated with 55 μM DGC for 60 min at room temperature. The control cells were only incubated with a culture medium. Next, the nuclei were stained with 5 μg/mL DAPI solution for 5 min. Finally, the cells were observed by a confocal laser scanning microscope (CLSM, PerkinElmer, USA). The fluorescence intensity of each cell was measured by ImageJ software, the red channel was extracted by clicking Split Channels, and the red fluorescent region, except the nucleus was selected by Freehand selections. Then the average fluorescence intensity in this region was measured and recorded for statistical analysis.
To further determine the specificity of DGC to CTGF, immunofluorescence staining was performed with CTGF antibodies to determine the location of CTGF in cells. First, U87MG cells in confocal dishes were fixed with 4% PFA for 30 min. Next, the cells were washed with PBS three times, and 3% bovine serum albumin (BSA) in PBS solution. Then, the cells were incubated with CTGF antibody (dilution 1:100, Abcam, Cat#ab6992) in PBS for 4 h at 4 °C, and FITC-labeled Goat Anti-Rabbit IgG (H + L) (1: dilution 1:200, Bioss, Cat#bs-0370R-FITC) in 3% BSA solution was added to the cells for another 30 min at 37 °C in the dark. Subsequently, 55 μM DGC were incubated with the cells for 1 h. Finally, the cells were stained with DAPI for 5 min and washed with PBS before the CLSM image (Nikon).
Moreover, a binding site blocking study was performed to confirm the specificity of the DGC to CTGF. First, U87MG cells were fixed with 4% PFA. Then, a PBS solution containing 3% BSA was used to block the nonspecific recognition sites for 30 min. After BSA blocking, the cells were pre-incubated with 5 mM of free DAG peptide for 1 h, followed by 55 μM DGC added for 60 min. Then, DAPI (5 μg/mL) was added to U87MG cells to stain the nuclei. Finally, the cells were imaged by the CLSM system.

CTGF [2] = target: T1, CTGF (Homo sapiens, UniProt P29279); assay: DGC fluorescence labelling of human postmortem brain sections; parameters: The brain tissue samples of autopsy-confirmed AD patients were obtained from the Chinese Brain Bank Center; from tissue; host or cells: postmortem human brain sections (hippocampus, cortex) of AD patients and healthy controls; settings: for fluorescence (FL) intensity of DGC: cortex section, ImageJ
T1 sequence (P29279 27-349): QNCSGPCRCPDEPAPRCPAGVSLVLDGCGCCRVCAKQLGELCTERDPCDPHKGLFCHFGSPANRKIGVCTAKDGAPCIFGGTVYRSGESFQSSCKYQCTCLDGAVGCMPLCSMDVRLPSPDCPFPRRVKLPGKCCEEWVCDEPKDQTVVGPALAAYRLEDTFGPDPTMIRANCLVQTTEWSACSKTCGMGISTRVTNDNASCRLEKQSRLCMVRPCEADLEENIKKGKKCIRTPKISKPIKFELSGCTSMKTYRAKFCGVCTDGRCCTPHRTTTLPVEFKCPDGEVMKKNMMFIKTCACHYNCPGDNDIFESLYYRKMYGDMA
Experimental: The brain tissue samples of autopsy-confirmed AD patients were obtained from the Chinese Brain Bank Center (CBBC) and Human Brain Bank, Central South University Xiangya School of Medicine. First, the brain sections were air-dried for 15 min at room temperature, followed by immersion in water. 5% H2O2 was applied for 15 min at room temperature. The sections were washed three times with PBS for 5 min each time. Then, tissue repair was performed using trypsin at a temperature of 37 °C for 5 min and washed three times with PBS. We chose 10% sheep serum to block for a duration of 20 min at 37°. Primary antibodies (CTGF antibody and Aβ antibody) were added to the sections overnight at 4 °C. FITC-labeled Goat Anti-Rabbit IgG (H + L) (1: dilution 1:200, Bioss, Cat#bs-0370R-FITC) was applied and incubated at 37 °C for 20 min in darkness. Subsequent washing steps involved rinsing the sections three times with PBS, each time lasting for 5 min while avoiding exposure to light. DAPI staining was performed, taking care to store the samples away from light during the 5-min procedure. Then observed by the CLSM system. Then, we chose the optimal incubation concentration of DGC (200 μM) was used to determine the conditions using DAB Horseradish Peroxidase Color Development Kit. After the brain sections were co-stained by DGC (200 μM) at 4 °C overnight, a DAB chromogenic agent was added to the brain tissue sections to explore whether DGC can catalyze DAB solutions to produce insoluble brown precipitate to attach the brain tissue sections with an optical microscope. Finally, the brain tissue sections were digested with aqua regia to measure the Au content by the ICP-MS system.

- FL Intensity (CTGF [2]; AD 1, Cortex section stained with DGC): 8.08
- FL Intensity (CTGF [2]; AD 1, Hippocampus section stained with DGC): 9.357
- FL Intensity (CTGF [2]; AD 2, Cortex section stained with DGC): 14.1982
- FL Intensity (CTGF [2]; AD 2, Hippocampus section stained with DGC): 17.484
- fluorescence (FL) intensity of DGC (CTGF [2]; Case 1 (healthy control, Thal 0), section 1): 0.3032
- fluorescence (FL) intensity of DGC (CTGF [2]; Case 1 (healthy control, Thal 0), section 2): 0.3289
- fluorescence (FL) intensity of DGC (CTGF [2]; Case 1 (healthy control, Thal 0), section 3): 0.3505
- fluorescence (FL) intensity of DGC (CTGF [2]; Case 2 (healthy control, Thal 0), section 1): 0.2446
- fluorescence (FL) intensity of DGC (CTGF [2]; Case 2 (healthy control, Thal 0), section 2): 0.3615
- fluorescence (FL) intensity of DGC (CTGF [2]; Case 2 (healthy control, Thal 0), section 3): 0.163
- fluorescence (FL) intensity of DGC (CTGF [2]; Case 3 (AD, Thal 1), section 1): 0.6904
- fluorescence (FL) intensity of DGC (CTGF [2]; Case 3 (AD, Thal 1), section 2): 0.8926
- fluorescence (FL) intensity of DGC (CTGF [2]; Case 3 (AD, Thal 1), section 3): 0.6063
- fluorescence (FL) intensity of DGC (CTGF [2]; Case 4 (AD, Thal 1), section 1): 0.9911
- fluorescence (FL) intensity of DGC (CTGF [2]; Case 4 (AD, Thal 1), section 2): 1.101
- fluorescence (FL) intensity of DGC (CTGF [2]; Case 4 (AD, Thal 1), section 3): 1.556
- FL Intensity (CTGF [2]; HC 1, Cortex section stained with DGC): 1.2358
- FL Intensity (CTGF [2]; HC 1, Hippocampus section stained with DGC): 1.043
- FL Intensity (CTGF [2]; HC 2, Cortex section stained with DGC): 1.632
- FL Intensity (CTGF [2]; HC 2, Hippocampus section stained with DGC): 6.0176
Substance: DGC: CTGF-targeting peptide-coated gold nanocluster: one Au26 gold nanocluster coated by eight DAG cyclic peptides, NIR-II and red fluorescence (CDAGRKQKC; also: cyclic peptide, ring not given here, eight peptides on one Au26 nanocluster via Cys Au-S bonds)
- labelling of CTGF after blocking with free DAG peptide (CTGF [1]; U87MG cells pre-incubated with 5 mM free DAG 1 h, then 55 μM DGC 60 min): cannot label CTGF in cells pre-blocked by free DAG peptides
- co-localization coefficient (Pearson's correlation coefficient) of DGC and CTGF antibody (CTGF [1]; U87MG cells, ImageJ): 0.946
- FL Intensity of DGC per cell (CTGF [1]; fixed CTX TNA2 cells, replicate 1): 5.779
- FL Intensity of DGC per cell (CTGF [1]; fixed CTX TNA2 cells, replicate 2): 3.821
- FL Intensity of DGC per cell (CTGF [1]; fixed CTX TNA2 cells, replicate 3): 8.33
- FL Intensity of DGC per cell (CTGF [1]; fixed SH-SY5Y cells, replicate 1): 14.6594
- FL Intensity of DGC per cell (CTGF [1]; fixed SH-SY5Y cells, replicate 2): 16.8684
- FL Intensity of DGC per cell (CTGF [1]; fixed SH-SY5Y cells, replicate 3): 12.4094
- FL Intensity of DGC per cell (CTGF [1]; fixed U87MG cells, replicate 1): 36.9955
- FL Intensity of DGC per cell (CTGF [1]; fixed U87MG cells, replicate 2): 33.5045
- FL Intensity of DGC per cell (CTGF [1]; fixed U87MG cells, replicate 3): 35.4955
